Tests used:
人4-1BB胞外区蛋白(hu4-1BB ECD) = molecular target: T1, 人4-1BB胞外区蛋白(hu4-1BB ECD) (human, UniProt Q07011 24-186); assay: single-phage ELISA, 100 ng/well coated 4-1BB
T1 construct: extracellular domain; also called 人4-1BB蛋白; 抗原4-1BB

阴性对照蛋白BSA = molecular target: T2, 阴性对照蛋白BSA (UniProt P02769 25-607); assay: single-phage ELISA, 100 ng/well coated protein
T2 construct: also called 对照BSA
T2 sequence (P02769 25-607 limits assumed): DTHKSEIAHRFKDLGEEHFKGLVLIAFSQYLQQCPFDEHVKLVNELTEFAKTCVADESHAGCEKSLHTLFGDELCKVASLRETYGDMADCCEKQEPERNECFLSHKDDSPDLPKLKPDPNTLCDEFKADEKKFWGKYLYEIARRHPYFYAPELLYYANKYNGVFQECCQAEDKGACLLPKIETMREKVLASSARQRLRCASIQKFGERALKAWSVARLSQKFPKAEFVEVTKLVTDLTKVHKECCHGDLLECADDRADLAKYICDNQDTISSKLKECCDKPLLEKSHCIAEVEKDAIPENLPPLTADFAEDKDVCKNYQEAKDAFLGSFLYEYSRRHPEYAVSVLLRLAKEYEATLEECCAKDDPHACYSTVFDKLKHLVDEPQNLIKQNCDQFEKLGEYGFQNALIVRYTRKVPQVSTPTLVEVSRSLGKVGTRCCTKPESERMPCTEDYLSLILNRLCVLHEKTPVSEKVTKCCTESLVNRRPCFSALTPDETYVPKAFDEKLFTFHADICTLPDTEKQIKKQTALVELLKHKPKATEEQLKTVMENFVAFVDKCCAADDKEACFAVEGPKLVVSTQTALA

- binding result (人4-1BB胞外区蛋白(hu4-1BB ECD)): binds
- binding result (阴性对照蛋白BSA): no binding
B1: 抗体(scFv)8F5 (scFv)
scFv: QVQLVQSGAEVKKPGASVKVSCKPSGYTFTSHYIHWVRQAPGQGLEWMGWINPNSGGTNYAQKFQGRVTMTRDTSISTAYMELSRLRSDDTAVYYCARDGGGMDVWGKGTMVTVSSGGGGSGGGGSGGGGSQSALTQPASVSGSPGQSITISCTGTSSDVGGYDFVSWYQHHPGKAPKLMIYGVANRPSGVSNRFSGSKSGNTASLTISGLQAEDDADYYCSSYSSTSTRYVFGTGTKVTVLG
